Source: patent US8053415B2, “Compounds having RD targeting motifs” (Washington University in St. Louis, priority 2005, dated 2011)
Where a SMILES comes first, the peptide text is derived from it.

Key:
[1] = Absorption and emission spectral properties in 20% aqueous DMSO; type: physicochemical
Description: The spectral properties of cypate and the cypate-peptide conjugates were determined in 20% aqueous DMSO, which solubilizes all the compounds. […] Absorbance measurements were performed with a Beckman Coulter DU 640 spectrophotometer. The fluorescence spectra were recorded on Fluorolog-3 fluorometer (HORIBA Jobin Yvon Inc., Edison, N.J.). To prepare the stock solutions, a high precision analytical balance was used to weigh >2 mg of each compound, which was dissolved in DMSO. The DMSO solutions were then diluted with water to obtain a final solution of 20% aqueous DMSO. An aliquot (known volume) of the solution was transferred to a cuvette with 1 μL precision micropipettes and diluted with 20% aqueous DMSO solvent mixture to give a working solution that absorbs at <1.0 absorbance unit. Aliquots of the working solution were diluted with 20% aqueous DMSO and used to determine the molar absorptivity of each compound. For fluorescence measurements, probe solutions with 0.1 absorbance units were used to minimize inner filter effects.
Previous studies have shown that this solvent mixture boosts fluorescence intensity and is well tolerated by rodents. Additionally, the dyes and their peptide conjugates are soluble in this solvent mixture, providing a common medium for spectral measurements.
Absorbance spectra were measured on a Beckman Coulter DU 640 UV-Visible spectrophotometer. Fluorescence spectra were recorded on a HORIBA Jobin Yvon Fluorolog-3 fluorometer. Stock solutions (1.0 mM) of the conjugates were prepared by dissolving each sample in 80% aqueous DMSO. UV-Vis and fluorescence measurements were carried out by adding 5.0 μL of the stock solutions via a micropipette into 3 mL of 20% aqueous DMSO in a quartz cuvette.

[2] = system: A549 tumor; experiment: In vivo fluorescence optical imaging and ex vivo organ distribution in A549 tumor-bearing nude mice; conditions: for uptake / retention in A549 tumor: 0.3 μmol per kg via lateral tail vein, fluorescence imaging
Description: All in vivo studies were performed in compliance with the Washington University in St Louis Animal Study Committee's requirements for the care and use of laboratory animals in research. Nude mice (18-22 g) were anesthetized with xylazine/ketamine cocktail via intraperitoneal injection and placed in a supine position. The mice were injected subcutaneously with A549 cells (1×10^6) in the lower back of the mice. Tumor masses were palpable at 5-7 days post implant, which reached 5 mm in 10-15 days. Prior to injection of the probe, the mice were anesthetized as described above. A 29-gauge needle was used to inject the probes into the mouse via the lateral tail vein. The molecular probe (100 μL) was injected via the lateral tail vein at 0.3 μmol per kg of body weight. […] [SEQ ID NO:1] were constituted in a vial, and doses of 0.3 μmol per kg of body weight were injected into the A549 tumor-bearing mice.
A non-invasive in vivo continuous wave fluorescence imaging apparatus was used to visualize the distribution and preferential tissue uptake of the cypate-peptide molecular beacons in the nude mice (Achilefu (2004) Technol. Cancer Res. Treat. 3:393-409, incorporated herein by reference). Light from two laser diodes of nominal wavelength 780 nm and nominal power of 50 mW was launched into a fiber optic bundle. Two laser diodes were used to produce as much uniform illumination of the whole animal or organ parts as possible. The nominal 50 mW of incident power was reduced to about 44 mW at the output of the fiber optic bundle. A de-focusing lens in position after the bundle expanded the beam such that nearly the whole animal was illuminated. A Photometrics CCD camera (16 bit, 1024×1024 pixel, back illuminated, thermoelectric Peltier cooled with forced air) was used to capture the emitted photons. An interference filter (830 nm) was mounted in front of the CCD camera input lens such that only emitted fluorescent light from the contrast agent was imaged. Real-time acquisition, display and data processing software (WinView/32) was used to obtain the optical image. The samples were dissolved in 20% aqueous DMSO and animals were injected with doses of 0.3 μmol/kg body weight via the lateral tail vein. Injected volumes were 100 μL for each mouse. Data analysis consisted of subtracting (pixel by pixel) the pre-injection image from the post injection images, and displaying the false color results. Integration of the relative fluorescence intensities of tumor vs. surrounding tissues indicated the extent of selective uptake of the contrast agent. At the completion of the study, the mice were euthanized and some organ parts were excised and rinsed with water. The tissues were placed under the CCD camera and the fluorescence emission from each organ was measured after excitation with the 780 nm laser sources. Tissue parts, instead of whole organs, were used to minimize problems associated with depth-dependent non-linear fluorescence emission. A statistical program in the WinView package was used to estimate the mean fluorescence intensity per organ part.
In vivo optical imaging studies using the cypate-peptide optical probes were performed and analyzed as described above in Example 1. […]

[3] = system: HEK cells; experiment: Cell uptake and internalization (Example 3); type: cell-based, human; conditions: within an hour of incubation
Description: (§1) The ABI-positive cells were incubated with cypate or cypate-peptide conjugates at 37° C. for different time points. A549 cells were grown as detailed above. The human glioblastoma cell line, U87, and the human embryonic kidney cell line, HEK, were purchased from ATTC. U87 and HEK cells were maintained in minimum essential medium (MEM) with 2 mM L-glutamine and Earle's BSS adjusted to contain 1.5 g/L sodium bicarbonate, 0.1 mM nonessential amino acids, and 1.0 mM sodium pyruvate, with 10% fetal calf serum, 100 units/mL penicillin, and 100 units/mL streptomycin. Cells were grown on Lab-Tek slides. The medium was replaced and cells were incubated for various times up to 4 h at 37° C. in the presence of 1 μM of the dye conjugated peptides. For fluorescence microscopy, cells were visualized with an Olympus BX61W1 microscope using 775/50 excitation, 845/55 emission. For subcellular localization studies, 25 nM mitotracker green or 50 nM lysotracker red from Molecular Probes (Eugene, Oreg.) was added during the last 15 min or 60 min of incubation, respectively. […] Relative fluorescence was determined for five different areas of each experimental condition using the Slidebook software, and the results were averaged. The average relative fluorescence for each condition was normalized to cells treated with Cyp-GRD peptide.

[4] = system: U87 cells; experiment: Cell uptake and internalization (Example 3); type: cell-based, human; conditions: within an hour of incubation
Description: as §1

[5] = system: A549 cells; experiment: Cellular internalization and blocking studies by fluorescence microscopy (Example 1); conditions: 37° C.; for translocation into the nucleus: A549 cells
Description: Cells were grown on LabTek microscope slides, as described above. The medium was removed and cells were incubated at 4° C. or 37° C. in PBS containing 1 μM of one of the peptide conjugates for 30 min. […] The cells were further incubated at 37° C. for 4 h and visualized with a Zeiss LSM510 system using a 633 laser and an LP650 filter.
For antibody blocking studies, cells were preincubated for 30 min at room temperature with 10 μg/ml function-specific monoclonal antibodies anti-αv or anti-β3 integrin subunits (Molecular Probes; Eugene Oreg.) before addition of 1 μM of a cypate-peptide conjugate. For nuclear staining, 0.1 μM TOPO-1 (Molecular Probes) was mixed with mounting medium and applied to the cells. All cells were visualized on an Olympus FV1000 microscope equipped with the appropriate bandwidth filters for cypate conjugates (or cypate-3 conjugates) and TROPO-1.

In the case of `CC1(C)C(/C=C/C=C/C=C/C=C2/N(CCC(=O)NCC(=O)N[C@@H](CCCNC(=N)N)C(=O)N[C@@H](CC(=O)O)C(=O)N[C@@H](CO)C(=O)N3CCC[C@H]3C(=O)N[C@@H](CCCCN)C(=O)O)c3ccc4ccccc4c3C2(C)C)=[N+](CCC(=O)O)c2ccc3ccccc3c21` [Cyp-GRD, Cypate-GRDSPK] (HELM PEPTIDE1{[CC1(C)C(/C=C/C=C/C=C/C=C2/N(CCC(=O)[*:2])c3ccc4ccccc4c3C2(C)C)=[N+](CCC(=O)O)c2ccc3ccccc3c21].G.R.D.S.P.K}$$$$V2.0), the “^abεmax” value [1] is reported as 237,680 cm^−1Mol^−1, the “^abλmax” value [1] is reported as 789 nm and the “^emλmax” value [1] is reported as 813 nm. For the same compound, the clearance from blood ([2]; 0.3 μmol per kg i.v.) was “slow clearance”, the “time post injection after which selective tumor uptake became obvious” value ([2]; 0.3 μmol per kg i.v.) was > 8 h and the “time the whole animal fluoresced after injection before clearance began” value ([2]; 0.3 μmol per kg i.v.) was “up to 2 h”. The “uptake / retention in A549 tumor” value [2] was “preferential uptake of the probes in the tumor”, the “uptake / retention in A549 tumor” value ([2]; listed as cypate-GRD) was “preferentially localized” and the “accumulation / retention in nontarget tissues” value ([2]; 24 h post injection) was “much lower”. The “tumor uptake compared among the cypate-peptide conjugates” value ([2]; 24 h post injection) was “higher uptake in the tumor tissue”, the “internalization in HEK cells” value [3] was “internalization” and the “internalization in U87 cells” value [4] was “internalization”. The “internalization in A549 cells” value ([5]; 1 μM) was “internalized”, the “translocation into the nucleus” value [5] was “did not translocate to the nucleus” and the “translocation into the nucleus” value ([5]; listed as cypate-GRD) was “not localized in the nucleus”.
